Data on 15 substances can be found in US20200024330A1.

Assay in all cases: cell-based or functional assay
Test [1] addresses HIV-1 MGRM-F1-020 Env (pseudovirus) (HIV-1).
The target of test [2] is HIV-1 Env of pseudovirus 93TH305, clade B (HIV-1).
Test [3] deals with HIV-1 Env of isolate MGRM-G-019 (subtype G) (HIV-1).
Test [4] concerns the target HIV-1 Env of isolate MGRM-AE-003 (HIV-1).
In test [5] the target is HIV-1 Env of pseudovirus MGRM-Chronic-B-002, clade B (HIV-1).
Test [6] deals with HIV-1 MGRM-F1-016 Env (pseudovirus) (HIV-1).
Test [7] concerns the target HIV-1 Env of pseudovirus THR0.18 (Acute), clade B (HIV-1).
The target of test [8] is HIV-1 Env of pseudovirus TRJ0.58 (Acute), clade B (HIV-1).
The target in test [9] is HIV-1 MGRM-A-012 envelope glycoprotein (Env) (HIV-1).
Test [10] addresses HIV-1 Env of isolate 94UG103 (HIV-1).
The target of test [11] is HIV-1 Env of isolate MGRM-D-012 (HIV-1).
Test [12] has as its target HIV-1 MGRM-C-019 Env (HIV-1).
The target in test [13] is HIV-1 MGRM-C-017 Env (HIV-1).
For test [14], the target named is HIV-1 Env of isolate MGRM-D-003 (HIV-1).
In test [15] the target is HIV-1 Env of isolate 92UG046 (HIV-1).
Test [16] deals with HIV-1 MGRM-C-023 Env (HIV-1).
Test [17] concerns the target HIV-1 Env of isolate MGRM-G-017 (subtype G) (HIV-1).
In test [18] the target is HIV-1 VLGCA1 envelope glycoprotein (Env) on pseudovirus (HIV-1).
The target of test [19] is HIV-1 Env of isolate MG RM-D-002 (subtype D) (HIV-1).
The target in test [20] is HIV-1 Env of isolate MG RM-AG-002 (HIV-1).
Test [21] deals with HIV-1 Env of isolate MGRM-F1-015 (HIV-1).
The target in test [22] is HIV-1 Env of isolate MG RM-D-004 (subtype D) (HIV-1).
Test [23] has as its target HIV-1 JRCSF Env (pseudovirus) (HIV-1) (UniProt P20871).
The target in test [24] is HIV-1 Env of isolate MGRM-C-027 (pseudovirus) (HIV-1 isolate MGRM-C-027, subtype C).
Test [25] has as its target HIV-1 Env of isolate MGRM-F1-006 (subtype F) (HIV-1).
The target in test [26] is HIV-1 Env of isolate MG RM-D-028 (subtype D) (HIV-1).
The target in test [27] is HIV-1 SC422661.8 Env (pseudovirus) (HIV-1).
The target of test [28] is HIV-1 Env of isolate MGRM-C-005 (pseudovirus) (HIV-1 isolate MGRM-C-005, subtype C).
Test [29] concerns the target HIV-1 Env of isolate MG RM-D-016 (subtype D) (HIV-1).
In test [30] the target is HIV-1 JR-CSF Env V120A (HIV-1 (isolate JR-CSF)) (UniProt P20871).
Test [31] addresses HIV-1 JR-CSF Env L179A (HIV-1 (isolate JR-CSF)) (UniProt P20871).
In test [32] the target is HIV-1 Env of isolate 92UG037 (HIV-1).
The target in test [33] is HIV-1 Env of isolate 92WR024 (HIV-1).
Test [34] concerns the target HIV-1 Env of isolate MGRM-Chronic-B-004 (HIV-1).
Test [35] deals with HIV-1 Env of isolate QH0692.42 (HIV-1).

Sequence of PGT-143 (4980_N08) (antibody) (VH): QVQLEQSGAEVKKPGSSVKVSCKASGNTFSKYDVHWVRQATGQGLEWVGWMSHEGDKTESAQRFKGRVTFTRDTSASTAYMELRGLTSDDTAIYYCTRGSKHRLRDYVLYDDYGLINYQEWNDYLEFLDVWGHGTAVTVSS
Sequence of PGT-143 (4980_N08) (antibody) (VL): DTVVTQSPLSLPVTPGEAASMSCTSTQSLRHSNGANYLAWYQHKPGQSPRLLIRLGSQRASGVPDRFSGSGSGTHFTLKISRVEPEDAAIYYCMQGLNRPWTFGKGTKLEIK
Sequence of PGT-141 (4964_G22; 4993_K13) (antibody) (VH): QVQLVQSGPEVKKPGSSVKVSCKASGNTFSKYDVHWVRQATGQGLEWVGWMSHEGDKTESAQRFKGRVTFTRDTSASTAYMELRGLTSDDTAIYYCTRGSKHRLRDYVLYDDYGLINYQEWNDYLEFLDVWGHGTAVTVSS
Sequence of PGT-141 (4964_G22; 4993_K13) (antibody) (VL): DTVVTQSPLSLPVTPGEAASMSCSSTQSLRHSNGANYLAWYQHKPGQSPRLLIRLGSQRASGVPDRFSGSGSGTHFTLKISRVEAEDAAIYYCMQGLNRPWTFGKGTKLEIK
Sequence of PGT-142 (4995_E20) (antibody) (VH): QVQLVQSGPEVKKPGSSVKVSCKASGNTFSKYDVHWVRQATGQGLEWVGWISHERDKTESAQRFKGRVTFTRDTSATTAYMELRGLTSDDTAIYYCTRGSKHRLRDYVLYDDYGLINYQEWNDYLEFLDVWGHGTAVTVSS
Sequence of PGT-144 (4970_K22) (antibody) (VH): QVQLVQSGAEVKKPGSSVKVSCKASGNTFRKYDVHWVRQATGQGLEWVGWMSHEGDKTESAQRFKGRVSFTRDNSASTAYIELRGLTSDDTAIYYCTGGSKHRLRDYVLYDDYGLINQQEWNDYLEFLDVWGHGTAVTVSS
Sequence of PGT-144 (4970_K22) (antibody) (VL): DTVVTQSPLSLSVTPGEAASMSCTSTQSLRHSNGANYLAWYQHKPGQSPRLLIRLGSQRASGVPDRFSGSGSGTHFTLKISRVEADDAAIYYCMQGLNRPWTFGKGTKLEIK

The term IC50 denotes the concentration needed to halve the response being measured. The low end stands for greater potency, the high end for weaker potency. Consider 1496_C09 (PG9) (TCN-109) (antibody), for which the IC50 (µg/ml), pseudovirus neutralization is 4.55 µg/mL in [1]; 2.08 µg/mL in test [2]; 1.41 µg/mL in test [5]; 0.58 µg/mL in [6]; 12.4 µg/mL in test [7]; 0.43 µg/mL in test [8]. Also, the IC50 (µg/ml), pseudovirus neutralization amounted to 11.2 µg/mL in [9] and 0.07 µg/mL in test [18]. The neutralization IC50 turned out to be 14.6 µg/mL in test [3] and 0.104 µg/mL in [17]. Further, the IC50 (µg/mL), pseudovirus neutralization in test [4] was determined as 0.044 µg/mL; in test [11], 16.2 µg/mL; in test [14], 0.033 µg/mL; in test [15], 1.86 µg/mL. Moreover, the IC50 was 0.34 µg/mL in test [10], 0.01 µg/mL in test [12], 1.52 µg/mL in [13] and 0.51 µg/mL in test [16].

On to 4838_L06 (PGT-121) (antibody), for which the IC50 (µg/mL), pseudovirus neutralization is 0.006 µg/mL in [19]; more than 50 µg/mL in test [22]; 5.33 µg/mL in [25]; 0.009 µg/mL in test [26]; more than 50 µg/mL in test [29]. This substance also had a neutralization IC50 in test [20] of more than 50 µg/mL. In test [21], this substance displayed an IC50 of 28.4 µg/mL. The values for the IC50, pseudovirus neutralization in test [23] and in [27] were 0.027 µg/mL and 0.098 µg/mL, respectively. Also, the neutralization IC90 in [23] worked out at 0.223 µg/mL. In addition, the neutralization IC95 in test [23] came to 0.417 µg/mL. In addition, the IC50 (µg/mL) neutralization in test [24] came out at 0.011 µg/mL; in test [28], 0.015 µg/mL.

As to 4858_P08 (PGT-123) (antibody), the IC50 (µg/mL), pseudovirus neutralization in [19] is 0.012 µg/mL; in [22] it was more than 50 µg/mL; in [25], 6.89 µg/mL; in test [26], 0.132 µg/mL; in [29] it was more than 50 µg/mL. Also, in test [20], the neutralization IC50 is more than 50 µg/mL. This substance also came in with an IC50 in [21] of more than 50 µg/mL. The Fold IC50 increase relative to wild-type in test [30] came to 1.1 fold; in test [31], 1.2 fold. Further, the IC50, pseudovirus neutralization in [23] came out at 0.046 µg/mL; in [27], 0.039 µg/mL. Further, the IC50 (µg/mL) neutralization in test [24] was 0.02 µg/mL; in test [28], 0.012 µg/mL.

As for 4877_D15 (PGT-122) (antibody), the IC50 (µg/mL), pseudovirus neutralization was 0.005 µg/mL in test [19]; more than 50 µg/mL in [22]; 3.27 µg/mL in test [25]; 3.34 µg/mL in test [26]; more than 50 µg/mL in [29]. For the same substance, the neutralization IC50 in test [20] was more than 50 µg/mL. Besides, the IC50 in [21] is 31.4 µg/mL. Moreover, the IC50, pseudovirus neutralization in test [23] was 0.057 µg/mL; in test [27], 0.103 µg/mL. The IC50 (µg/mL) neutralization came out at 0.039 µg/mL in test [24] and 0.027 µg/mL in test [28].

Turning to 5123_A06 (PGT-125) (antibody), the IC50 (µg/mL), pseudovirus neutralization is 0.118 µg/mL in [19]; 0.371 µg/mL in test [22]; 0.035 µg/mL in test [25]; more than 50 µg/mL in test [26]; 0.12 µg/mL in test [29]. Moreover, the neutralization IC50 in test [20] was more than 50 µg/mL. Moreover, the IC50 in test [21] was more than 50 µg/mL. For the same substance, the results for the Fold IC50 increase relative to wild-type in [30] and in test [31] were 0.5 fold and 1.3 fold, respectively. The IC50, pseudovirus neutralization in [23] amounted to 0.004 µg/mL; in test [27], 30.1 µg/mL. For the same substance, the IC50 (µg/mL) neutralization is more than 50 µg/mL in [24] and 2.09 µg/mL in [28].

Usually IC80 stands for the concentration needed for an effect of 80%. A higher IC80 goes with a need for much substance. By IC90 is commonly meant the point of the concentration-response curve where the effect stands at 90%. As usually defined, the IC95 is the point of the concentration-response curve where the effect stands at 95%. For the substance 5141_B17 (PGT-126) (antibody), the IC50 (µg/mL), pseudovirus neutralization is 0.039 µg/mL in test [19]; more than 50 µg/mL in test [22]; 0.078 µg/mL in [25]; more than 50 µg/mL in test [26]; more than 50 µg/mL in test [29]. Also, in test [20], the neutralization IC50 is more than 50 µg/mL. For the same substance, the IC50 in test [21] was more than 50 µg/mL; in test [23], 0.0061 µg/mL. Moreover, the results for the Fold IC50 increase relative to wild-type in test [30] and in test [31] were 0.7 fold and 2.6 fold, respectively. In addition, the results for the IC50, pseudovirus neutralization in test [23] and in test [27] were 0.008 µg/mL and 0.119 µg/mL, respectively. In [23], this substance registered an IC80 of 0.018 µg/mL. In test [23], this substance gave an IC90 of 0.0339 µg/mL. This substance also yielded an IC95 in test [23] of 0.0608 µg/mL. Besides, the IC50 (µg/mL) neutralization in test [24] came out at 15.6 µg/mL; in test [28], 0.298 µg/mL.

For 5145_B14 (PGT-127) (antibody), the IC50 (µg/mL), pseudovirus neutralization was 0.6 µg/mL in test [19]; more than 50 µg/mL in [22]; 7.17 µg/mL in test [25]; more than 50 µg/mL in [26]; more than 50 µg/mL in test [29]. The substance also had a neutralization IC50 in test [20] of more than 50 µg/mL. Besides, the IC50 in test [21] is more than 50 µg/mL. For the same substance, the Fold IC50 increase relative to wild-type in test [30] was 1.5 fold; in [31], 2.5 fold. Further, the values for the IC50, pseudovirus neutralization in test [23] and in test [27] were 0.018 µg/mL and 36.7 µg/mL, respectively. Also, the IC50 (µg/mL) neutralization is more than 50 µg/mL in test [24] and 0.57 µg/mL in test [28].

Take PGT-121 (antibody): the IC50 (µg/mL), pseudovirus neutralization in test [4] was more than 50 µg/mL; in [32], 0.031 µg/mL; in [10] it was 2.52 µg/mL; in test [33], more than 50 µg/mL. In test [10], this substance displayed a Primary Neutralization Index (B cell culture well 4838 L06) of 1.4. The substance also had a Primary Neutralization Index (B cell culture well 4873 E03) in test [10] of 0.8.

On to PGT-122 (antibody), for which the IC50 (µg/mL), pseudovirus neutralization in [4] is more than 50 µg/mL; in [32] it was 0.068 µg/mL; in [10] it was 2.04 µg/mL; in test [33] it was more than 50 µg/mL.

Take PGT-141 (4964_G22; 4993_K13) (antibody): the figures for the neutralization IC50 in [3] and in test [17] were 20.3 µg/mL and 0.164 µg/mL, respectively.

PGT-142 (4995_E20) (antibody): the neutralization IC50 worked out at 5.95 µg/mL in test [3] and 0.125 µg/mL in test [17].

On to PGT-143 (4980_N08) (antibody), for which the neutralization IC50 in test [3] is 4.77 µg/mL; in [17], 0.107 µg/mL.

In the case of PGT-144 (4970_K22) (antibody), the values for the neutralization IC50 in test [3] and in [17] were more than 50 µg/mL and 9.97 µg/mL, respectively.

For the substance PGV04 (antibody), the results for the neutralization IC50 in test [3] and in test [17] were 0.027 µg/mL and 0.065 µg/mL, respectively. Also, the IC50 (µg/mL), pseudovirus neutralization in test [4] is 6.4 µg/mL; in test [21], 0.179 µg/mL; in test [11], 0.125 µg/mL; in test [14], more than 50 µg/mL; in test [15], 22.4 µg/mL. Further, the IC50 in [32] was 0.145 µg/mL; in test [10], 0.202 µg/mL.

Regarding VRC01 (antibody), the neutralization IC50 in test [3] turned out to be 0.06 µg/mL; in test [35], 1.19 µg/mL; in test [17], 0.124 µg/mL. This substance displayed a 50% inhibitory concentration (IC50) in test [34] of 0.055 µg/mL. Also, the results for the IC50, pseudovirus neutralization in test [21] and in [11] were 0.387 µg/mL and 0.216 µg/mL, respectively.
